Positions count from the first letter of the chain named. Values belong to the binder of their own block, whether it stands above or below them.
Experiments:
[1] = molecular target: T1, human LRRC15 extracellular domain expressed on HEK293α (pDisplay-hLRRC15 ECD) (human, UniProt Q8TF66 22-538); assay: flow cytometry, HEK293α expressing WT human LRRC15 ECD
T1 construct: also called WT; human LRRC15 wild-type
T1 sequence: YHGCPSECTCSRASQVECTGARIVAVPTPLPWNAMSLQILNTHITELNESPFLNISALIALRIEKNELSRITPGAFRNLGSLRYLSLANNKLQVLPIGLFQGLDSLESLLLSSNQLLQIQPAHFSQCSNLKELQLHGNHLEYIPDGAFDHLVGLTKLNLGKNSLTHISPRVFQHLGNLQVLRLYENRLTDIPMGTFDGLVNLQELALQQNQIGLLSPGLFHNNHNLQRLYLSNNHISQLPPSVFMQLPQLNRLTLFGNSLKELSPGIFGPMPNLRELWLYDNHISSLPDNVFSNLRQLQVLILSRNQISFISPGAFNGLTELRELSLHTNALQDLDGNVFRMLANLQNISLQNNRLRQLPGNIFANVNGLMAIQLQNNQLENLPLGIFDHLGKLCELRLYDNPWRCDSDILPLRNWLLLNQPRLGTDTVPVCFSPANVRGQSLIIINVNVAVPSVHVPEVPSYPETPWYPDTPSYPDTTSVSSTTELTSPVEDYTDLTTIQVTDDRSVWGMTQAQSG

[2] = molecular target: T2, human LRRC15 (full-length, on cells) (human, UniProt Q8TF66 22-581); assay: flow cytometry, endogenous LRRC15 on human melanoma line Hs294T
T2 construct: also called hLRRC15; endogenous LRRC15 of Hs294T
T2 sequence: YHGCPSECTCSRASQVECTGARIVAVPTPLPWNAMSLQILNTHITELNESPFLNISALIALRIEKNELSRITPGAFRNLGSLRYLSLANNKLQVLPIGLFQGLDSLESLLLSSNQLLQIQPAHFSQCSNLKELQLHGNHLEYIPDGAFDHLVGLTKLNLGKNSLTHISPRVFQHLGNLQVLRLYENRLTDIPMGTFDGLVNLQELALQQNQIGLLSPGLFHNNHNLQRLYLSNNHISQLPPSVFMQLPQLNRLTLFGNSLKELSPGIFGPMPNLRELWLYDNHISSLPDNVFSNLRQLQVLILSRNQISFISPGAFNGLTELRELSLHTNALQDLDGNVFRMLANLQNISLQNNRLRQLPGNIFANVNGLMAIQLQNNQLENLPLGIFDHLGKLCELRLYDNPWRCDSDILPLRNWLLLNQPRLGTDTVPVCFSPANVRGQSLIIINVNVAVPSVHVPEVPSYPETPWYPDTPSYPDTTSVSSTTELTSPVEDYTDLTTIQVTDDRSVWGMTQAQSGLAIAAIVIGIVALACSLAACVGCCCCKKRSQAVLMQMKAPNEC

[3] = molecular target: T3, cynomolgus monkey LRRC15 extracellular domain expressed on HEK293α (pDisplay-cynoLRRC15 ECD) (cynomolgus monkey, UniProt Q8TF66 22-538 (human entry)); assay: flow cytometry, transfected HEK293α, 10 µg/mL
T3 construct: vector-derived parts not described
T3 chain: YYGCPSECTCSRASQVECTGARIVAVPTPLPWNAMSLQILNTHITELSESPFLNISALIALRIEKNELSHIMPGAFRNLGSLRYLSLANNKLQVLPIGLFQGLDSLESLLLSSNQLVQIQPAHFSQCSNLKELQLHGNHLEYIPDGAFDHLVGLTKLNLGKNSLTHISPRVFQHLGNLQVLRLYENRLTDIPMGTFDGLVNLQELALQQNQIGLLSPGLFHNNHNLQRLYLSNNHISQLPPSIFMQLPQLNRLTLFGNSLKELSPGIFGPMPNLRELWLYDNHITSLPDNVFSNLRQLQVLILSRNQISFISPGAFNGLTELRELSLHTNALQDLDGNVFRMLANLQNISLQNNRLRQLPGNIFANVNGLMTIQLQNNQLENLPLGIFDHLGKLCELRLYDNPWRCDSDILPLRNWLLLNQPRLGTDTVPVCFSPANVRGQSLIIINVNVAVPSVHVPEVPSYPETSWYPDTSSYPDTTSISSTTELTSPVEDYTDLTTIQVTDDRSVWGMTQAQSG

human LRRC15-His protein = molecular target: T4, human LRRC15-His protein (human, UniProt Q8TF66 22-538); assay: SPR, Biacore T200; antibody captured by anti-human IgG (Fc), human LRRC15-His as analyte, 1:1 model
T4 construct: Recombinant, expressed in mammalian cells; also called human LRRC15 antigen; hLRRC15-His
T4 sequence: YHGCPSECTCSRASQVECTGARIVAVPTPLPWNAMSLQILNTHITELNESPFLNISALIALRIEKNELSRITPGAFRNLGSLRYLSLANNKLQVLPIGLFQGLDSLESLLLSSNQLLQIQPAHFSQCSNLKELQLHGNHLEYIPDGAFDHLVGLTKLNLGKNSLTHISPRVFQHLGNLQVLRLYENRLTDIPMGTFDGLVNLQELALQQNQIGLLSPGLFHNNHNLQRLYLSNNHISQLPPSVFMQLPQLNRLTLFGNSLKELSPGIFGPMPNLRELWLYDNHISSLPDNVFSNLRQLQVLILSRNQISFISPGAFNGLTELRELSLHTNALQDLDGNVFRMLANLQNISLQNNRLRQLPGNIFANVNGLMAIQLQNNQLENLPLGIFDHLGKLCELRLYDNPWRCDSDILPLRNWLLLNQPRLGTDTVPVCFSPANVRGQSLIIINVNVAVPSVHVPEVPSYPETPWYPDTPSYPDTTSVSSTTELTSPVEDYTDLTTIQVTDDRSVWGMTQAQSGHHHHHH

[4] = molecular target: T1, human LRRC15 extracellular domain …; assay: flow cytometry, transfected HEK293α, 10 µg/mL
[5] = molecular target: T2, human LRRC15 (full-length, on cells); assay: Cell-ELISA, hybridoma supernatant on HEK293α transfected with pcDNA3.1-hLRRC15

B1: H02L01 antibody (antibody, human IgG1, kappa, L234A L235A, V domains shown)
VH: EVQLVESGGGLVQPGGSLRLSCAASGFTFRDYYMAWVRQAPGKGLEWVSSIGFDESRTYYADSVKGRFTISRDDSKNTLYLQMNSLRAEDTAVYYCARHGVSYYSGDNWFAYWGQGTLVTVSS
VL: DIQMTQSPSSLSASVGDRVTITCKSSQGLLYSGDQKNYLAWYQQKPGKAPKLLIYWASTRQSGVPSRFSGSGSGTDFTLTISSLQPEDFATYYCQQYYDPPYTFGQGTKVEIKR
notes: Humanized anti-LRRC15 antibody, human IgG1 / kappa; also called hR024 (hR024 H02 + hR024 L01)
binding result [1]: binds
binding result [2]: binds
binding result [3]: binds

B2: H02L01-V1 antibody (antibody, human IgG1, kappa, L234A L235A, V domains shown)
VH: B1 VH with Y103K
VL: B1 VL
notes: Humanized anti-LRRC15 antibody, human IgG1 / kappa; also called hR024 (hR024 H02-V1 + hR024 L01)
Kd (human LRRC15-His protein): 59.9 nM
binding result [3]: binds

B5: rR024 antibody (antibody, rat IgG2b, V domains shown)
VH: EVQLVESNGALVQPGRSLKLSCAASGFTFRDYYMAWVRQAPSKGLEWVASIGFDESRTYYRDSVKGRFTISRDDVKSTLYLQLDSLRSEDTATYYCTRHGVSYYSGDNWFAYWGQGALVIVSS
VL: DIVMTQSPSSLAVSAGETVIINCKSSQGLLYSGDQKNYLAWYQQKPGQSPKLLIYWASTRQSGVPDRFIGSGSGTDFTLTISSVQGEDLAIYYCQQYYDPPYTFGAGTKLELKR
notes: Rat monoclonal antibody from hybridoma culture supernatant; rat IgG2b, kappa light chain; also called clone rR024
binding result [5]: binds

The remaining lines, values ahead:

binding result [2]: binds
binding result [4]: binds
binding result [3]: binds
B3: H09L03 antibody (antibody, human IgG1, kappa, L234A L235A, V domains shown)
VH: B1 VH with S49A, N77S, A97T
VL: B1 VL with A49S, S66D
notes: Humanized anti-LRRC15 antibody, human IgG1 / kappa; also called hR024 (hR024 H09 + hR024 L03)

binding result [2]: binds
binding result [4]: binds
binding result [3]: binds
B4: H02L01-V2 antibody (antibody, human IgG1, kappa, L234A L235A, V domains shown)
VH: B1 VH with Y103R
VL: B1 VL
notes: Humanized anti-LRRC15 antibody, human IgG1 / kappa; also called hR024 (hR024 H02-V2 + hR024 L01)

— patent EP4703474A1, “ANTI-LRRC15 ANTIBODY” (priority 2023, dated 2024)
